Experimental findings from patent US20240092836A1 are described below.

B1: C4-302mat-3-1-31 (peptide, not shown: large carriers; small tags and cut ends)
chain: GSCMHPFLPVASRHFCGR
B2: C4-302mat-2-100-18 (peptide, not shown: large carriers; small tags and cut ends)
chain: GGCMHPFLPVVSHHFCRG
B3: C4-302mat-3-100-27 (peptide, not shown: large carriers; small tags and cut ends)
chain: GGCMHPFLPVASHHFCAG
B4: C4-302mat-1-1-24 (peptide, not shown: large carriers; small tags and cut ends)
chain: GGCMHPFLPVVSHHFCGG
B5: C4-302mat-3-100-44 (peptide, not shown: large carriers; small tags and cut ends)
chain: GGCLHPFLPIVSHHFCGR
B6: C4-302mat-2-1-38 (peptide, not shown: large carriers; small tags and cut ends)
chain: GGCLHPFLPLVSHHFCGG
B7: C4-302mat-3-1-22 (peptide, not shown: large carriers; small tags and cut ends)
chain: GGCMHPFLPVASHHFCGR
B8: C4-302mat-2-100-4 (peptide, not shown: large carriers; small tags and cut ends)
chain: GGCMHPFLQVVSHHFCGG
B9: C4-302mat-3-1-45 (peptide, not shown: large carriers; small tags and cut ends)
chain: GGCRHPFLPIVSRHFCRG
B10: C4-302mat-3-1-35 (peptide, not shown: large carriers; small tags and cut ends)
chain: GGCMHPFLQTVSHHFCGG
B11: C4-302mat-3-100-9 (peptide, not shown: large carriers; small tags and cut ends)
chain: GGCKHPFLPVVSHHFCGG
B12: C4-302mat-3-1-5 (peptide, not shown: large carriers; small tags and cut ends)
chain: GGCMHPFLPVVSRHFCGG
B13: C4-302mat-3-1-32 (peptide, not shown: large carriers; small tags and cut ends)
chain: GGCMHPFLPILSHHFCAG
B14: C4-302mat-2-1-27 (peptide, not shown: large carriers; small tags and cut ends)
chain: GGCMHPYLPVISHHFCGG
B15: C4-302mat-3-1-10 (peptide, not shown: large carriers; small tags and cut ends)
chain: GGCKHPYLPVASHHFCRG
B16: C4-302mat-3-100-37 (peptide, not shown: large carriers; small tags and cut ends)
chain: GGCMHPFLPVVSHHFCGR
B17: C4-302mat-1-1-37 (peptide, not shown: large carriers; small tags and cut ends)
chain: GGCMHPFLRVVSHHFCGG
B18: C4-302mat-2-1-3 (peptide, not shown: large carriers; small tags and cut ends)
chain: GGCMHPFLPVTSHHFCGG
B19: C4-302mat-2-100-27 (peptide, not shown: large carriers; small tags and cut ends)
chain: GGCMHPFLPIVSHHFCGS
B20: C4-302mat-3-1-12 (peptide, not shown: large carriers; small tags and cut ends)
chain: GGCMHPFLPVVSRHFCGR
B21: C4-302mat-2-1-2 (peptide, not shown: large carriers; small tags and cut ends)
chain: GGCLHPFLPVVSHHFCGD
B22: C4-302mat-3-100-20 (peptide, not shown: large carriers; small tags and cut ends)
chain: GGCVHPFLPVVSHHFCRG
B23: C4-302mat-3-100-12 (peptide, not shown: large carriers; small tags and cut ends)
chain: GGCMHPYLPVISHHFCGR
B24: H12SSI-Ctla4-3-02 (MBP fusion) (peptide, not shown: large carriers; small tags and cut ends)
chain: GGCMHPFLLVVSHHFCGG
B25: C4-302mat-3-1-48 (peptide, not shown: large carriers; small tags and cut ends)
chain: GGCMHPFLPVVSHHFCGA
B26: C4-302mat-1-1-35 (peptide, not shown: large carriers; small tags and cut ends)
chain: GGCMHPFLPVASHHFCGG
B27: C4-302mat-3-1-23 (peptide, not shown: large carriers; small tags and cut ends)
chain: GGCMHPFLPIASLHFCGR
B28: biotinylated clone #19: Biotin-PEG4-… (peptide)
peptide: {Biotin-PEG4}-KCMHPFLPIVSHHFCER
modifications: disulfide 2-15
B29: C4m#19-5th2w-NNS6-41 (peptide, not shown: large carriers; small tags and cut ends)
chain: GGCWHPVLPIRSDHFCCR
B30: biotinylated H12SSI-Ctla4-3-02: Biotin-PEG4-… (peptide)
peptide: {Biotin-PEG4′}-KCMHPFLLVVSHHFC
modifications: disulfide 2-15

Bridges are numbered along the chain shown (N, C = ends). Primed or numbered codes have the meaning given here. Where no end group is shown, it is not given here. The star is where a group is joined. Biotin = O=C1N[C@H]2[C@H](CS[C@H]2CCCCC(=O)*)N1; PEG4 = NCCOCCOCCOCCOCCC(=O)O; PEG4′ = not defined here

One assay deals with Recombinant Human CTLA4-Fc chimera (R&D systems) (human) (UniProt P16410). The assay can be described thus: ELISA, purified MBP fusion on immobilised CTLA-4.
As to B1, the EC50 (commonly the concentration giving half of the maximal effect) came out at 342 nM.

As to B2, the EC50 was found to be 369 nM.

On to B3, for which the EC50 is 352 nM.

Turning to B4, the concentration giving a half-maximal response (EC50) was 1040 nM.

For the molecule B5, the EC50 came to 82 nM.

Turning to B6, the EC50 was found to be 867 nM.

With B7, the 50% effective concentration (EC50) was found to be 222 nM.

Turning to B8, the concentration for a half-maximal effect (EC50) is 4180 nM.

In the case of B9, the EC50 turned out to be 300 nM.

Consider B10, for which the EC50 is 668 nM.

On to B11, for which the EC50 was determined as 832 nM.

As to B12, the half-maximal effective concentration (EC50) turned out to be 674 nM.

Regarding B13, the EC50 was determined as 322 nM.

As for B14, the EC50 came to 1640 nM.

Turning to B15, the EC50 was 703 nM.

B16: the EC50 turned out to be 225 nM.

Regarding B17, the EC50 was 1490 nM.

Consider B18, for which the EC50 was 826 nM.

For B19, the EC50 came to 189 nM.

Turning to B20, the EC50 was 85 nM.

As for B21, the EC50 amounted to 474 nM.

On to B22, for which the concentration giving a half-maximal response (EC50) was found to be 889 nM.

As for B23, the EC50 is 217 nM.

Consider B24, for which the EC50 turned out to be 3920 nM.

Turning to B25, the EC50 was 187 nM.

As to B26, the EC50 amounted to 288 nM.

In the case of B27, the EC50 is 160 nM.

For the next assay the target is unchanged. The assay can be described thus: BLItz (BLI), synthetic biotinylated peptides.
Turning to B28, the fold higher affinity than the original clone (H12SSI-Ctla4-3-02) was 3 fold.

For a further assay the target is unchanged. In words: BLItz (BLI), biotinylated CTLA-4 on SA chip, MBP fusion as analyte.
As for B24, the Kd (usually a measure of binding affinity in units of concentration) turned out to be 3880 nM; the koff – broadly, a measure of how fast the partners let go of each other – amounted to 0.0123 s⁻¹; the kon (in general, a measure of how fast the partners come together) came out at 3180 M⁻¹ s⁻¹.

The next assay has the same target. In words: ELISA, signal over SA. (In general: In an ELISA, binding on a coated surface is turned into a signal by an enzyme label.)
As to B29, the ELISA S/N(SA) stood at 3.1.

For the next assay the target is unchanged. The assay can be described thus: BLItz (BLI), biotinylated peptide on SA chip, CTLA-4 protein as analyte.
B30: the Kd worked out at 191 nM, the koff came out at 0.022 s⁻¹ and the kon is 115000 M⁻¹ s⁻¹.

Consider B28, for which the Kd stood at 61.8 nM, the koff stood at 0.0128 s⁻¹ and the kon is 208000 M⁻¹ s⁻¹.

Another assay shares this target. In words: ELISA EC50, purified MBP fusions.
With B5, the fold improvement of affinity over the original clone was found to be 50 fold.

Consider B20, for which the fold improvement of affinity over the original clone turned out to be 50 fold.
